Assay [1] deals with SARS-CoV-2-3Q-2P full-length spike (SARS-CoV-2) (UniProt P0DTC2). Briefly: cryo-EM structure.
Assay [2] shares this target. Briefly: cryo-EM structure. This is another data set of the same source.
Assay [3] has the same target. The assay is described as follows: negative stain electron microscopy.
Assay [4] has as its target SARS-CoV-2-3Q-FL spike (without 2P) (SARS-CoV-2) (UniProt P0DTC2). Briefly: cryo-EM structure.

Several values for one entry are separate records, joined by “and”; a condition that tells them apart may be missing. Equal values may be shown once.

“SARS-CoV-2-3Q-2P full-length spike (from UniProt P0DTC2 14-1273) (natural protein)”: the stoichiometry N was 3 and 6 in assay [1]; 9 in assay [2]; 3 in assay [3].
With “SARS-CoV-2-3Q-FL spike (without 2P) (from UniProt P0DTC2 14-1273) (natural protein)”, in assay [4], the stoichiometry N was 3.

The record behind these values is publication doi:10.1101/2020.08.06.234674.
